These results are taken from a protein production outcome set (Wang et al. 2014).

This data set can be described thus: label from the status in PepcDB records.
“MSLTLDELDSHLFKCADIIRDAVDPTDYKEYILPLVFYKAISDEYEQEREEIVEEYGEDFADNANLYDVPIVPEGHRWNDLRQESENVDEAINNAFTEFTQANPDLSGIFNANFMEAGGLTDDRLIKLVEHLSTYDLDRDSVPPDMLGEAYMDLVRHFAEEEGKSGGQFFTPPHIVQLCVRLVDDFADGMTFHDPTVGSGGMLTEAAKYYREAQGGDPSKLTFTGQEINPDIAAIARMNLSLHTLNGEIERGDSLASPGFTDGDDLERFDRVLANFPFSADWAKDDLQDDQYGRFDWHTKLPRADRGDYAFIMHIAEQLKEPDCGDESGGKAAIVIPHGVLFRKHEQRYRQPMLENDLVEAIVGLPENLFQNNSIPSAILVLNTDKPADREGEVQFIHAADEAFYEELSNQNELTDDGLDHIVENFDDWTTEERVSRTVGIEEIEENDFNLNIALYVDTTEPEEDIDVNEELAELRELQAEREEIESRMTEHMEALQYE”: the protein production entry is listed as “failed”.

In the case of “MEKLNFGIPEWAFEFHGHKCPYMPMGYRAGSYALKIAGLEKEKDHRTYLLSEMSPEDMNGCFNDGAQAATGCTYGKGLFSLLGYGKLALILYRPGRKAIRVHVRNSFMDELSTRASDFFRYRKQGYEPSEIPAGAIDPVLEWISSLEDEEIFEYREIDGFTFEPVKKNGAKVRCDVCGEYTYEADAKLLNGKPVCKPDYYGKK”, the protein production result is “not failed”.

In the case of “MTLSITSNFDAGAIDVVSCERADAIRLRVRGDNRSEFAQWFYFRLTGARGERCVMTFENANDCAYPAGWRDYRAVASYDRVNWFRVPTSYDGQMLTIDHTPEFDSIHYAYFEPYSEERHSEFLGAVQQMPQASVVELGRTVEGRPMSLVVLGTPDEAGAAKKKVWIIARQHPGESMAEWFIEGLVKRLVGWGDWSGDPVARKLYDHATFYIVPNMNPDGSVHGNLRTNAAGANLNREWMEPDAERSPEVLVVRDAIHAIGCDLFFDIHGDEDLPYVFAAGSEMLPGFTEQQRVEQSAFIDSFKRASPDFQDEHGYPPGKYREDAFKLASKYIGHRFGCLSLTLEMPFKDNANLPDEHIGWNGARSASLGAAMLGAILEHVRAFA”, the protein production entry is given as “not failed”.

For the sequence “MTATASTVLPARALLLDMDGTLVNSDAAVDRVWRRWADRHGLDGDEVMKVVHGRQGYASMALLLPDRPMEHNHADNARMLAEETADTEGVVAIPGAAEFLASLRGLPHALVTSADVALSTARMAAAGLAQPDVRVTAESVGASKPDPEGFLKGAAELGIAPADCVVFEDSGAGIAAGRAAGMRVVGVGPRAGFHGPDVVVEDLTRVRVEADADGGLRLHIG”, the protein production result is on record as “failed”.

As for “MATEPIRIGVVGASPDRGWAADAHLPALQHLPQYKITAVGTRRADSAHRAARRYGATHAFTDPRSLAAHPDVELVAIVVKVPDHARLVEAALAAGKHVLCEWPLARTTEEAAQLTAAAHGAGVVNAVGLQARHTPTVVRARELIRQGYVGRVTSVTVYSTRGVAAGGRLPAAFAYTLDSTNGAGTLEVAGGHTLDAVQYLLGREMTGLSAALSVQHPRITLDEDARQTGATSPDHVALHATLEGGAALVVHIHDAKNSGAGTRIEISGTQGELAIVSTGPRSGSGLQISELALLGAQGTEPSGQELPFPGSWGTAVPADGLDAAQHTMAVQYAALAADIREGGSRVPRFADGIELHRLLDAVRLSSATGCRLERRAGERWPVSSPWPRRRRSR”, the protein production result is “failed”.

“MGIKHLNLTVADVVAAREFLEKYFGLTCSGTRGNAFAVMRDNDGFILTLMKGKEVQYPKTFHVGFPQESEEQVDKINQRLKEDGFLVEPPKHAHAYTFYVEAPGGFTIEVMC”: the protein production result is reported as “not failed”.

As to “MIIDDIINKIKSSNKIAISFHISPDGDSIGSSLGLLNGLRSIGKETYILSKEVVPESFEFLNFAREIDGNHFEVEDNTDLLITLDCGNIERLNFDTSDMISEDKKYTVINIDHHVTNDSFGDLNYINTKAASVGEIVYDLLSKMNISIDRTIAACLYTSILTDTGSFRFSNTTLNTHVVAGNLISTGLDFSEIHRKIFDNKKFEALKLQALVLNDMYLTFNNKLCVMKVTHDFIEKANAEDVDTGDLVSLGLKVNTAEVCMLLKEKDDCIKVSLRSKSYVDVRKIAEKFGGGGHIRAAGLSINSNILDAEKMILSEIQGELLEHHHHHH”, the protein production result is “failed”.

Turning to “MANLLSTCTSESGNIQHISPQNAGWEYVGFDVWQLKAGESITLPSDERERCLVLVAGLASVKAADSFFYRIGQRMSPFERIPAYSVYLPHHTEAKVTAETDLELAVCSAPGFGELPVRLISPQEVGVEHRGKGRNQRLVHNILPDSQLADSLLVVEVYTNAGATSSWPAHKHDTAVEGQETYLEETYYHRFNPPQGFCLQRVYTDDRSLDECMAVYNRDVVKVPKGYHPVATIAGYDNYYLNVMAGPLRKWRFTWEENHAWINSPDYPR”, the protein production entry was “not failed”.

As to “MSLSSKLRLQLDAHASIHENVRRLLQFTTSIMEANEEGIRKDIDSEFLHDFRVAIRRSRSILRLLNGVFDPEKTAWMLAGLRELGKRTNDLRDSDVYLLRREEYTSLLPPSLRPALDPFFSDLEADKRLHHRQFCRYLTGREYSGFMTSLKEFIAEGELPDPETAPLAAEPTGDVAAKTIRKALKKVLVHGRRTGSETSDAELHELRIDCKKLRYLLEFFASLFPPKATAQVLRQMKTLQDNLGTFVDLTVQMEFLQSRLETIPADRGGISEAAAIGGLLTTLYRKREKVREHFHEIFSGFDSNETGELFDELLTGLAEGHHHHHH”, the protein production entry is given as “not failed”.

Turning to “MLIDPIELYRYPEKWIKDRDAEKKVRSGLYILTEDGYLRRGITTGTTASAAAVAAIASLKEKVEKVKVSTPAGVDVEVEVEAEKGFARVRKFSGDHEFDVTNGIIFEAEVCETSGIFFGRGVGVKAGEKAVSRSAKLQILENFIKASREFNFSGGVRISVPDGEEVAKKTGNEKVGIKGGISILGTTGFVEPWCKKLVETKLKIAMQYHRIAITTGRKAWLYARKKFPEYQPFVFGVHIDEALKHPGEKIIVGFPGLLKIWAGSRDRIEERAREEGVRVVVIEDDMDSWVWDVQGTDH”, the protein production result was “not failed”.

As for “MKDMKMQSSPETMMTRIPTPDPHSTGVREDAMDSVCKPWKLYENPYYCSSQSQQHQHQRKAFIWDLNFIKVFMESELGKAQDEIKELKAELDYERKARRRAELMIKKLAKDVEEERMAREAEEMQNKRLFKELSSEKSEMVRMKRDLEEERQMHRLAEVLREERVQMKLMDARLFLEEKLSELEEANRQGERERNRMMKPKILERACSSPARRRCENPQIKRGINPFPRVMRAIRSKSEKWGSKLECQKVQLKILLRQKTTPRCTPLLSSPPP”, the protein production result is reported as “failed”.

For “MLVVAVVFPVLAFIFLGGVVFYTRKQNKPKNKRAASVEVDENNEDGVKVNNSELKKLTKIKKIKGSKIYLKNGAIRVNLGISSPDFELLTDEEQTSFEDCLMMSALSLNFPVQFHTTLKKIEIKEPAELVEKTMNSSDSLISDNLRDYCSQLYSSYKKLEHEKGIFVRKSFCTVGAYLPDRDEKKVLNELQSRIDNIAGGLSRARMKINLLNSESTAQILADLFNRGKNIKIETLEKDGAFDLYSEGVGQVVEVQEG”, the protein production entry is “failed”.

On to “MASRSDSAALSRDVPGAAFCGSRDMQKKHLFLALLVTALWGLNFPITKLGLASIDPLLLTALRFTLAALPWVFLVPRPPVAFAWLAAYGLIFGVAMWALINLGIDHGVAPGTAALLIQFSAFFSLGWGVLLFGERLRLQQVLATAIALWGLLRIIGDSPGHATSLGYALLLVSAFSWSVGNVIIKRCGVREVFAFVVWASLFAPLPLLALTWISHGAAPFLQLAGQVSAGAALSLMFQVYAATLFCYWGWNLLLREYPVSRVAPLSLLIPVFGMAGSVLILGQRLGAEEGISMGLILLALAVGQFDWRRLITLGRRSL”, for which the protein production result is “failed”.
